Earlier results on one substance are cited in article PMC5536120.

The term Kd denotes a measure of binding affinity in units of concentration.

The target in series [1] is knob B peptide GHRP (Homo sapiens) (UniProt P02675).
Series [2] concerns the target Fibrin central fragment central region (knobs A) (Homo sapiens) (UniProt P02671).

Chain of UniProt P02675 (P02675 whole entry, looked up, the tested form may be a part): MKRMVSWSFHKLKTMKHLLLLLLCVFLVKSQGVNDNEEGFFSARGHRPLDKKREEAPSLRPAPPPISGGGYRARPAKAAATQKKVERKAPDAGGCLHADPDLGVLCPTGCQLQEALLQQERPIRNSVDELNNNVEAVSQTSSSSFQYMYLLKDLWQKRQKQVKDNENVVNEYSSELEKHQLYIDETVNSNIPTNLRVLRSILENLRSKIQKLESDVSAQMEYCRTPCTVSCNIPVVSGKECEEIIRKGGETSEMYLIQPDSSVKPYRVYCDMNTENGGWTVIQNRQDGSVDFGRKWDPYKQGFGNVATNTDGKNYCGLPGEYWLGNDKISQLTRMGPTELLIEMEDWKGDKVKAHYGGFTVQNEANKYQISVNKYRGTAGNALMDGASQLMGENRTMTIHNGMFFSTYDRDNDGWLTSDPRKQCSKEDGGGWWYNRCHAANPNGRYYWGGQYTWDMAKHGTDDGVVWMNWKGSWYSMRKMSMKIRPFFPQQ

Fibrinogen (from UniProt P02671): the Kd is 140 µM in series [1] and 5.8 µM in series [2].
